Measurements: article PMC6817362
pKd: −log10 of the molar value.

Target: Recombinant mouse SIGN-R1 Fc chimera protein, extracellular domain (mouse) (UniProt Q8CJ91)
Assay: SPR

Chain of UniProt Q8CJ91 (Q8CJ91 74-325, change not shown): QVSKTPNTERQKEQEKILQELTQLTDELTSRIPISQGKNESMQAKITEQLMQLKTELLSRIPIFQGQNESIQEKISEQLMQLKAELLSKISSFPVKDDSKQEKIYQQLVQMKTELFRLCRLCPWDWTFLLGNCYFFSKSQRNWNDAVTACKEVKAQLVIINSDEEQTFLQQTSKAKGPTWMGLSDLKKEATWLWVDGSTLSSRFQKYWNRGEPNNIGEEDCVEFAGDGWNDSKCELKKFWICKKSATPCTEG

## Hemagglutinin HA from Influenza A H1N1 (A/Puerto Rico/8/34) (from UniProt P03452) (natural protein)
  pKd: 6.85
